According to publication PMC5387740:

Target: osteopontin (UniProt P10451)
Sequence of UniProt P10451 (P10451 17-314): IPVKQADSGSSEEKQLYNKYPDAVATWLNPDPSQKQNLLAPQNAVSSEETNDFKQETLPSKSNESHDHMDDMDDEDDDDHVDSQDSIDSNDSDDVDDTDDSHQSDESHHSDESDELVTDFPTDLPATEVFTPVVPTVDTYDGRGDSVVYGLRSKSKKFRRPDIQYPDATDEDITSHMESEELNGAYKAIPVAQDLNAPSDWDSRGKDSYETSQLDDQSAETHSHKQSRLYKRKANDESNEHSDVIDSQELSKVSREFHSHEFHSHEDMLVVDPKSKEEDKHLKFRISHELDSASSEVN

integrin alpha v (αV) (receptor)
PDGF-BB-stimulated fibroblast migration on osteopontin (monolayer wound closure, 24 h): inhibition by integrin αV blocking antibody in the panel of integrin blocking antibodies (Fig. 3B): 92% | PDGF-BB-stimulated fibroblast migration on osteopontin (monolayer wound closure, 24 h): reduction by integrin αV blocking antibody compared to control IgG (Fig. 3A): 91%
